Experiment [1] addresses T1, human CLDN6 (Claudin 6) (human, UniProt P56747 1-220).
T1 construct: whole, on cells; Over-expressed on CHOS cells (CHOS-hCLDN6) or naturally expressed on the tumor cells OV90, NEC8, NTERA2 and Bewo; also called hCLDN6; CHOS-hCLDN6
T1 sequence (looked up): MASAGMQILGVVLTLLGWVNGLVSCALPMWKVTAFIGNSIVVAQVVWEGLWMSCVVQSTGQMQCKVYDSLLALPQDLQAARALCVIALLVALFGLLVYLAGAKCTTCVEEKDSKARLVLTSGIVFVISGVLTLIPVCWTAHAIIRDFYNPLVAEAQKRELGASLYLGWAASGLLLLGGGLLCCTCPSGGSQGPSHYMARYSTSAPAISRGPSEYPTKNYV
Nature of the experiment: flow cytometry on NEC8 tumor cells naturally expressing human CLDN6. The protocol: (§1) 500,000 CLDN6-naturally expressing tumor cells (0V90, ATCC; NEC8, JCRB; NTERA2, Nanjing Cobioer Biosciences Co., Ltd; Bewo, Nanjing Cobioer Biosciences Co., Ltd) were placed in FACS buffer for later use, in which round-bottom low-adsorption 96-well plates were used. Antibody samples were serially diluted with FACS buffer. The diluted antibody was added to the cell plates, and FACS buffer was added to the corresponding negative control wells, and incubation was performed at 4° C. for 1 hour. […] After staining, the supernatant was removed by centrifugation, washing was performed twice with FACS buffer, and the cells were resuspended by adding FACS buffer to each well, and then loaded on a machine for reading. A flow cytometer (BD Company, model CantoII) was used to measure and read the cells in the experimental plate. During the measurement, the position of cells was first delineated according to FCS and SSC, and then the fluorescence channel corresponding to the second antibody and SSC were selected to analyze the cells. GraphPad was used for data analysis, the logarithm of antibody concentration was used on the abscissa, and the average fluorescence intensity value was used on the ordinate. […]

The target in experiment [2] is T1, human CLDN6 (Claudin 6). Nature of the experiment: flow cytometry on NTERA2 tumor cells naturally expressing human CLDN6. The protocol: as §1
The target of experiment [3] is T1, human CLDN6 (Claudin 6). Nature of the experiment: flow cytometry on Bewo tumor cells naturally expressing human CLDN6. Here is the method:
as §1

Experiment [4] has as its target T1, human CLDN6 (Claudin 6). Nature of the experiment: flow cytometry on OV90 tumor cells naturally expressing human CLDN6. The protocol:
as §1

The target in experiment [5] is T1, human CLDN6 (Claudin 6). Description: cell-based or functional assay.
Experiment [6] concerns the target T1, human CLDN6 (Claudin 6). Description: flow cytometry on CHOS-hCLDN6 cells. Here is the method:
(§2) Flow cytometric evaluation of mouse antibody binding to CLDN3/4/6/9: 500,000 CLDN6 expressing cells (CHOS-hCLDN6, CHOS-CLDN3, CHOS-CLDN4, CHOS-CLDN9) were placed in FACS buffer (PBS+2% FBS)/well, added with the mouse antibody to be tested and incubated at 4° C. for 1 hour. The supernatant was removed by centrifugation, washing was performed twice with FACS buffer, secondary antibody (DyLight488 goat anti-mouse IgG, Abcam, Cat. No.: ab97015) was added and incubated at 4° C. for 0.5 hours. After staining, the supernatant was removed by centrifugation, washing was performed twice with FACS buffer, the cells were resuspended with FACS buffer, and then loaded on the machine for reading. A flow cytometer (BD company, model CantoII) was used to measure and read the experimental cells. During the measurement, the cell position was first delineated according to FCS and SSC, and then the fluorescence channel corresponding to the second antibody and SSC were selected to analyze the cells.

The target of experiment [7] is T2, human CLDN9 (Claudin 9) (human, UniProt O95484 1-217).
T2 construct: whole, on cells; Over-expressed on CHOS cells by lentiviral infection; also called CHOS-CLDN9
T2 sequence (looked up): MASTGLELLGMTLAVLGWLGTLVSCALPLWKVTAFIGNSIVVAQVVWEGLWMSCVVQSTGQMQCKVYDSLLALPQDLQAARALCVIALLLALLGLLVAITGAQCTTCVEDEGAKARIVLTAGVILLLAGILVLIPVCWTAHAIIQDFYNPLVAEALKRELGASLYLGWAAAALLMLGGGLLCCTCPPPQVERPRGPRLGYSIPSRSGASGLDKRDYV
Nature of the experiment: flow cytometry on CHOS-CLDN9 cells. Here is the method:
as §2

In experiment [8] the target is T1, human CLDN6 (Claudin 6). Nature of the experiment: binding to CLDN6-expressing cells (FIG. 6: NEC8, Bewo).

Positions count from the first letter of the chain named.

B1: humanized antibody 7008-01 (antibody, human IgG1, kappa, V domains shown)
VH: QVQLQESGPGLVKPSETLSLTCTVSGYSITSGYYWNWIRQPPGKGLEWMGYISYSGSNNYNPSLKNRVTISRDTSKNQFSLKLSSVTAADTAVYYCARGGYYFDYWGQGTLVTVSS
VL: DIVMTQSPDSLAVSLGERATINCKSSQSLLNTNNQKNYLAWYQQKPGQPPKLLIYFASTRESGVPDRFSGSGSGTDFTLTISSLQAEDVAVYFCQQHYNAPRTFGGGTKVEIKR
notes: Human IgG1 heavy chain constant region, human kappa light chain constant region
With B1, a half-maximal effect in experiment [1] (EC50) was put at 1.31 µg/mL. Also, the concentration for a half-maximal effect (EC50) in experiment [2] turned out to be 1.22 µg/mL. Further, in experiment [3], the EC50 amounted to 1.06 µg/mL. Further, the 50% effective concentration (EC50) in experiment [4] came out at 2.85 µg/mL. In experiment [5], the “ADCC EC50, Bewo target cells, Jurkat-NFAT-Luc-CD16 effector reporter cells” value worked out at 0.7 µg/mL; the “ADCC EC50, NEC8 target cells, Jurkat-NFAT-Luc-CD16 effector reporter cells” value was determined as 0.15 µg/mL; the “ADCC EC50, NTERA2 target cells, Jurkat-NFAT-Luc-CD16 effector reporter cells” value is 0.55 µg/mL; the “ADCC EC50, OV90 target cells, Jurkat-NFAT-Luc-CD16 effector reporter cells” value was found to be 0.55 µg/mL.

B2: anti-CLDN6 murine antibody 9H3 (antibody, V domains shown)
VH: EVQLVESGGDLVKPGGSLKLSCAASGFTFSIYGMSWVRQSPDRRLEWVATISRDGSYTYFPDSVKGRFTISRDNAKNTLYLQMSSLKSEDTAMYYCVRLGDNDRGYAMDYWGQGTSVTVSS
VL: DVLMTQTPLSLPVSLGDQASISCRSSQSVVHVNGNTYLEWYLQKPGQSPRLLIYKVSNRFPGVPDRFSGSGSGTDFTLRISRVEAEDLGVYYCFQGSHVPRTFGGGTNLEIK
notes: Mouse hybridoma antibody, detected with anti-mouse IgG; the murine constant regions are not
B2: the binding result in experiment [6] and in experiment [7] was “binds” each time.

B3: 9H3 hotspot mutant, LCDR1 NG mutated to SG and HCDR2 DG mutated to DA (antibody, V domains shown)
VH: B2 VH with G55A
VL: B2 VL with N33S
notes: also called 9H3 antibody with a hotspot mutant
For B3, in experiment [8], the “fold change of the ability to bind against the unmutated antibody” value was at most 3 times.

B4: 9H3 hotspot mutant, LCDR1 NG mutated to NA and HCDR2 DG mutated to DA (antibody, V domains shown)
VH: B2 VH with G55A
VL: B2 VL with G34A
notes: as for B3
For B4, the “fold change of the ability to bind against the unmutated antibody” value in experiment [8] is at most 3 times.

B5: humanized antibody 7008-03 (antibody, human IgG1, kappa, V domains shown)
VH: EVQLVESGGGLVQPGGSLRLSCAASGFTFSIYGMSWVRQAPGKGLEWVATISRDASYTYFPDSVKGRFTISRDNAKNSLYLQMNSLRAEDTAVYYCVRLGDNDRGYAMDYWGQGTLVTVSS
VL: DVVMTQSPLSLPVTLGQPASISCRSSQSVVHVNANTYLEWYQQRPGQSPRLLIYKVSNRFPGVPDRFSGSGSGTDFTLKISRVEAEDVGVYYCFQGSHVPRTFGGGTKVEIKR
notes: as for B1
On to B5, for which the concentration for a half-maximal effect (EC50) in experiment [1] worked out at 0.91 µg/mL. Also, the EC50 in experiment [2] amounted to 1.02 µg/mL. The molecule further showed an EC50 in experiment [3] of 0.9 µg/mL. It took 3.79 µg/mL to reach a half-maximal effect in experiment [4] (EC50). Also, in experiment [5], the “ADCC EC50, Bewo target cells, Jurkat-NFAT-Luc-CD16 effector reporter cells” value worked out at 0.21 µg/mL; the “ADCC EC50, NEC8 target cells, Jurkat-NFAT-Luc-CD16 effector reporter cells” value is 0.071 µg/mL; the “ADCC EC50, NTERA2 target cells, Jurkat-NFAT-Luc-CD16 effector reporter cells” value came out at 0.4 µg/mL; the “ADCC EC50, OV90 target cells, Jurkat-NFAT-Luc-CD16 effector reporter cells” value is 0.16 µg/mL.

B6: anti-CLDN6 murine antibody 15H2 (antibody, V domains shown)
VH: DVQLQESGPGLVKPSQSLSLTCSVTGYSITSGYYWNWIRQFPGNKLEWMGYISYDGSNNYNPSLKNRFSIIRDTSKNQFFLKFNSVTTEDTATYYCARGGYYFDYWGQGTTLTVSS
VL: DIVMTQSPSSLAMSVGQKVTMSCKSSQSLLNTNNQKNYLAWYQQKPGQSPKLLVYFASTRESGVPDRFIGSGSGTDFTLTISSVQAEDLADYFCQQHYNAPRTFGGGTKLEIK
notes: as for B2
Turning to B6, in experiment [6], the binding result was “binds”.

The values above are taken from US20240150455A1 (SHANGHAI GENBASE BIOTECHNOLOGY, published 2024).
